Data from the supplement of paper PMC12042874.
± gives the uncertainty stated by the source.

experiment: amyloid nucleation score (Sup35N fusion, yeast selection) (log enrichment); library NNK1; higher = more nucleation; inactive = no reads after selection
Outline: (§1)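 The nucleation score is the DiMSum log enrichment of output over input reads, centred on the mode score of non-aggregating sequences. Only sequences with 100 or more input reads were scored, using Illumina sequencing of input and output plasmid inserts. Psi-negative yeast expressing Sup35N fused to peptides of 20 random codons were induced 24 hours with 100 μM copper sulfate and grown 7 days at 30°C on medium lacking adenine and uracil.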

Row | Substance | amyloid nucleation score
1 | ATRVFLHIATQRSNLAYLPN | -0.189 ± 0.25
2 | ATSKRIQWLMRERAPPTRYP | 0.203 ± 1.5
3 | ATVSDF | -0.478 ± 0.36
4 | AVEVYGVISRKLINVSDRIG | 0.588 ± 0.69
5 | AVKEGWLFSQVVVERGWNL | -0.588 ± 0.63
6 | AVSAFSTVKSSFGDGGIGFF | -0.398 ± 0.34
7 | AVSSVVPGTCL | 0.55 ± 0.68
8 | AVVCVIIFYVNDRLYGCNLS | 0.395 ± 0.23
9 | AVVDRDMHYASTCSGGVGCH | -0.186 ± 0.96
10 | AVVWDTIYNKTKPLVRP | 0.57 ± 0.93
11 | AWCSSDGCFCPKRYMLLRSL | 0.159 ± 0.84
12 | AWGRDYEELSSPLGMKALTW | 0.381 ± 0.31
13 | AWKGRLAYKWIGNMMAGLVW | 0.005 ± 0.32
14 | AWKLRVFRDSAL | 0.608 ± 1.1
15 | AWLKSSGEEVVAGAQRPEHV | -1.02 ± 0.9
16 | AWNGFDWYHARFCTMSTYIL | -0.56 ± 0.38
17 | AWSLTSTHFG | 0.249 ± 0.69
18 | AYCFNSTGLSRFCSKYLWSN | -0.478 ± 0.45
19 | AYCGSWLQYL | -0.231 ± 0.76

Row | Substance | amyloid nucleation score
20 | AYCVAHTYCMSGMRYIADWV | 0.421 ± 0.31
21 | AYETLR | -0.385 ± 0.59
22 | AYLADCFPDVSTNWVRAISA | -0.337 ± 0.29
23 | AYSERTSGTMTRVWWDLRSR | -0.795 ± 1.1
24 | AYSRNYYQYAVNEFGDVVFE | 0.312 ± 1.1
25 | AYYGDGFAKGTMLMTS | -0.35 ± 0.32
26 | CAAGARSSGEMAYIARMKAG | 0.482 ± 0.69
27 | CAIWFRTEWFWTVCTWVSGH | -0.201 ± 0.43
28 | CAKGGPSGYKN | -1.41 ± 0.98
29 | CALLRCMLGSYSQYVARVGE | 0.504 ± 0.39
30 | CANFVFCCMGE | 7.396 ± 0.072
31 | CCGVDAFSSRESR | 1.55 ± 0.41
32 | CCLTILSIS | -0.281 ± 0.31
33 | CCRSRLLIITRTVSTAGDSR | -0.54 ± 1.3
34 | CCSRGLKVPDANRASKSGCE | 1.08 ± 0.52
35 | CCVDGLLLIERHVSLQYHSA | 0.135 ± 0.63
36 | CCVRACFPWNVLCKEMIFTR | -0.663 ± 1.6
37 | CDINLRKDTGISHLNGLFNA | 0.755 ± 0.43

experiment: amyloid nucleation score (Sup35N fusion, yeast selection) (log enrichment); library NNK2; higher = more nucleation; inactive = no reads after selection
Outline: as §1

Row | Substance | amyloid nucleation score
38 | YSGAYRLHYGFHIIICVCRW | 3.21 ± 0.066
39 | YSGLKCALCRCC | 1.94 ± 0.3
40 | YSGWFFCNFISLWV | 6.529 ± 0.057
41 | YSGWVSDS | inactive
42 | YSHATFSPASNSYQKG | 0.146 ± 0.56
43 | YSHSLHVIQKSFFCITVFVM | 5.28 ± 0.08
44 | YSIYEYG | 1.41 ± 0.15
45 | YSKDSMDSYMMIMFGSVACH | 0.681 ± 0.6
46 | YSLWLVVCYLLVCWNINCGT | 0.366 ± 0.44
47 | YSNSPCVIYNMKGRGSLLSH | -1.6 ± 0.64
48 | YSRGWVHVI | 0.384 ± 0.56
49 | YSSTTITFYNWDRVTSRRLA | -0.832 ± 0.44
50 | YSWSRVKFNSL | 2.53 ± 0.076
51 | YSYSIRLRCFASRYIFVRVR | 0.436 ± 0.66
52 | YTFCKHDVYAISLRFVLAPY | 7.304 ± 0.035
53 | YTGHFTSC | -0.496 ± 0.48
54 | YTMGLVSFCLQLGSASFDI | 3.56 ± 0.12
55 | YTRSAGGLISL | -0.774 ± 1.1
56 | YTRWWLWWGFNNCWRYWSEK | -0.96 ± 0.55
57 | YTSGSTGRDLLPNMKRGSVV | 4.36 ± 0.12
58 | YTVNCCIRANANGAFFSKVQ | 3.69 ± 0.053
59 | YVAAGLWVMWTGALKMRQAG | 0.954 ± 0.66
60 | YVCTRWVAYYLEWYGLDGPV | 0.665 ± 0.45
61 | YVFIYESPYSSRSCPNALVS | -0.011 ± 0.46

Row | Substance | amyloid nucleation score
62 | YVFSIYGPFLLVEGLSTPFR | 4.49 ± 0.095
63 | YVGLV | -0.23 ± 0.22
64 | YVLGEHRIRCGEDYV | 1.77 ± 0.31
65 | YVNMAVNLTTDGQMTWNSRT | 6.65 ± 0.035
66 | YVNPKVAWAGIDSAAEEDSD | 0.047 ± 0.49
67 | YVRYFSIQTGHV | inactive
68 | YVSLNNRQKFLAARLPKLEG | -0.51 ± 0.64
69 | YVWIQTLYALWYFSLRFAGL | -0.413 ± 0.49
70 | YWFQKLEGSRHDMV | -0.121 ± 1.1
71 | YWFVGTPCAVRVGWFSQPHR | 0.612 ± 0.45
72 | YWGSFGDKLKLLNMCPLSLD | inactive
73 | YWIRIRIQCFQGSIEQDTER | 4.96 ± 0.066
74 | YWLVRMVHGRAWPIFEENCQ | -0.01 ± 1
75 | YWNDSSRYGQVGVEYC | 0.49 ± 0.8
76 | YWSYSLGGSQEYSGHTMA | -0.135 ± 0.35
77 | YYACNKAND | -0.607 ± 1
78 | YYDLRAATESDVRHGTADHR | 0.195 ± 0.37
79 | YYGLVQRLFSCVCYYVLTF | inactive
80 | YYGNFHLMSWVWSIGPCSIY | 4.88 ± 0.11
81 | YYGSGNPSQGVVSEWLVRDA | 0.571 ± 0.36
82 | YYLSFCVSNAGAPGMDLMGQ | 0.328 ± 0.65
83 | YYMTRVSPFQSFIVIMGASQ | 1.89 ± 0.24
84 | YYNSATPTDDGWWKISG | -0.574 ± 1
85 | YYWGAGTQHGYLFTFVGGND | -0.326 ± 1
